19 compounds from patent publication US9845340B2, “Peptides that specifically bind HGF receptor (cMet) and uses thereof” (Dyax Corp., priority 2003, dated 2017) can be followed below.

Assay [1] deals with cMet-Fc fusion protein (Homo sapiens, UniProt P08581). The experiment in a line: Protein phage ELISA: peptide-displaying phage binding to soluble cMet-Fc versus TRAIL-Fc. To be noted: phage isolate; cMet-Fc vs. TRAIL-Fc. A digest of the protocol:
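Plates coated with 0.5 μg/mL cMet-Fc or, as background, TRAIL-Fc, then blocked with 3% BSA in PBST. Peptide-displaying phage bound 2 h at room temperature. Detection with HRP-anti-M13 antibody.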

For assay [2], the target named is T1, 3T3 cells that over-express human cMet (Homo sapiens, UniProt P08581).
T1 construct: expressed in transfected cells; host or cells: 3T3 cells
T1 sequence (P08581 25-1390): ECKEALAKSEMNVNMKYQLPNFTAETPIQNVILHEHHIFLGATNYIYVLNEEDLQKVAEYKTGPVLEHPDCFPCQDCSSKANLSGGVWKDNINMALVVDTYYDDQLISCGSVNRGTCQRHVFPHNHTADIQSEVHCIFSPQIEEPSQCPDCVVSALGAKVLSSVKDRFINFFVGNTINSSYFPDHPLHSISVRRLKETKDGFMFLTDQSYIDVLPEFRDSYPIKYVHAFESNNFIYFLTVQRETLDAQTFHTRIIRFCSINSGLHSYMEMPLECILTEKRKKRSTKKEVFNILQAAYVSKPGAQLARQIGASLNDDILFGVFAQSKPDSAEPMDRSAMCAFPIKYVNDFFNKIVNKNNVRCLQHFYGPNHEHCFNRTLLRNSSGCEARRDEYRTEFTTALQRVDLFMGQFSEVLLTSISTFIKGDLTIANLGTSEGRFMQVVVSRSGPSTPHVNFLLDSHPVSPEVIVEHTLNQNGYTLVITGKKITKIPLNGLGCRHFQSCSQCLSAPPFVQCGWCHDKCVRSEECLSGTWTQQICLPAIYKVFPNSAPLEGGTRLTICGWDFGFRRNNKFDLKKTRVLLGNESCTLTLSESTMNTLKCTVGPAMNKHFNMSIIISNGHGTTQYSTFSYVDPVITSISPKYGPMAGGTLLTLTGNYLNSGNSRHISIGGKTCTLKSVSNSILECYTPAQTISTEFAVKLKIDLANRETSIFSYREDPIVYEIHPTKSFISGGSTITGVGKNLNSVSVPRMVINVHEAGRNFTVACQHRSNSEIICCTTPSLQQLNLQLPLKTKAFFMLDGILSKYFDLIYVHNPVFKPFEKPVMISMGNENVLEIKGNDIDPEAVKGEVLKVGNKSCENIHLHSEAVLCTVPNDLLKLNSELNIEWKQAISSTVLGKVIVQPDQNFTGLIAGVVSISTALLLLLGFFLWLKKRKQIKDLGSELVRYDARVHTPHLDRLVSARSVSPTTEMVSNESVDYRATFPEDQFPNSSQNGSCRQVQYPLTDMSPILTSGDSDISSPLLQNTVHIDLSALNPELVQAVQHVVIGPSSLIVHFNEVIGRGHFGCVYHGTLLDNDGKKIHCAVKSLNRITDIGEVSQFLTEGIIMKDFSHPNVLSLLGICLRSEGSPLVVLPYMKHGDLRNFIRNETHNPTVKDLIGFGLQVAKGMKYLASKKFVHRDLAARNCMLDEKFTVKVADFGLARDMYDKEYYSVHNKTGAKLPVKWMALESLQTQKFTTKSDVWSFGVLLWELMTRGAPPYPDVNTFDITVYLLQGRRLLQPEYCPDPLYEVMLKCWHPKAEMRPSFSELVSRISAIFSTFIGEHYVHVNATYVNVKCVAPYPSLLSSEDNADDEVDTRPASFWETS
The experiment in a line: Whole cell ELISA of peptide-displaying phage. To be noted: phage isolate; 3T3 cells expressing human cMet vs. non-expressing 3T3 cells. Format: cell-based. A digest of the protocol:
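3T3 cells over-expressing human cMet seeded 10^5/well, pelleted and fixed with 0.1% glutaraldehyde 12 min at 37 °C. Blocked peptide-displaying phage bound 1 h at room temperature; after PBST wash, bound phage detected with HRP-conjugated anti-M13 antibody.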
(In general: In an ELISA, binding on a coated surface is turned into a signal by an enzyme label.)

cMet-Fc fusion protein, sequence (P08581 25-307 limits assumed): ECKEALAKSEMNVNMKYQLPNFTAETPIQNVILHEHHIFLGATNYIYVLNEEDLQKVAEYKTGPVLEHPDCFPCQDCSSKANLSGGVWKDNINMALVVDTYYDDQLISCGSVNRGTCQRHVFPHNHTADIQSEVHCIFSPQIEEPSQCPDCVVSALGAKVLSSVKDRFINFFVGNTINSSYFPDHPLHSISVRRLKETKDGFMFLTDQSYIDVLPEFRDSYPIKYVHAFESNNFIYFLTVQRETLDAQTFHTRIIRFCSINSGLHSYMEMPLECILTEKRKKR
cMet-Fc fusion protein, sequence (P08581 with tags, fused parts or gaps limits assumed): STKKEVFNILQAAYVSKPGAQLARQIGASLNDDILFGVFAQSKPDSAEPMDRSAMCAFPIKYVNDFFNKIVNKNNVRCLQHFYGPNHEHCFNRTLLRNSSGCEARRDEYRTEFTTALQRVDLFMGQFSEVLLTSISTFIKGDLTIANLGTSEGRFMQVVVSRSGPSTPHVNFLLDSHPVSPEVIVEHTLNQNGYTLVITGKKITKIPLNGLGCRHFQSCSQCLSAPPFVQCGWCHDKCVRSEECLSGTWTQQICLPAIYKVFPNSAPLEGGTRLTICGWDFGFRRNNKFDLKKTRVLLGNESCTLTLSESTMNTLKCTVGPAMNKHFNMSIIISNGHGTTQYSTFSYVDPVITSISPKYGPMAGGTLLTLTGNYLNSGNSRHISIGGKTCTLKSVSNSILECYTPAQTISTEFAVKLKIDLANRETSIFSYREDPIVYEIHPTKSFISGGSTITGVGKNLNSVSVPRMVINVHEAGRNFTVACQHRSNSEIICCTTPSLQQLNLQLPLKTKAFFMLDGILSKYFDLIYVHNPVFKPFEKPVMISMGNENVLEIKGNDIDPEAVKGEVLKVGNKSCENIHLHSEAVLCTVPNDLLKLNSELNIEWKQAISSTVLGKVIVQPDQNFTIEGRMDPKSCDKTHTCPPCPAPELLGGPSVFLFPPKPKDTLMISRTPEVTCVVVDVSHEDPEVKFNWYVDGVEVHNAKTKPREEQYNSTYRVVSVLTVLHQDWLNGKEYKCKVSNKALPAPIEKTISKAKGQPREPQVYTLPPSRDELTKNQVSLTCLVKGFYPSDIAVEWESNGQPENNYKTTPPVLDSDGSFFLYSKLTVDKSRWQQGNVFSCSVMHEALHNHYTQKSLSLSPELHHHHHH

For “GSSTICPGTACVDHAP (Synthetically generated cMet-binding peptide sequence) [SEQ ID NO: 008]”, in assay [1], the “Protein ELISA” value was found to be 3.2 fold over background. For the same compound, in assay [2], the “WC ELISA” value came out at 1.27 fold over background.
The matching figures for “AGMDFCEGFWFLCIGNAT (Synthetically generated cMet-binding peptide sequence) [SEQ ID NO: 035]”: 3.5 fold over background and 1.23 fold over background.
Consider “AGKTVCQKWESVCSGMGT (Synthetically generated cMet-binding peptide sequence) [SEQ ID NO: 038]”, for which the “Protein ELISA” value in assay [1] turned out to be 3.1 fold over background. For the same compound, the “WC ELISA” value in assay [2] turned out to be 1.30 fold over background.
“AQDPGFSKHSMGHGYPSKMNWG (Synthetically generated cMet-binding peptide sequence) [SEQ ID NO: 471]”: in assay [1], the “Protein ELISA” value stood at 3.7 fold over background. Besides, the “WC ELISA” value in assay [2] is recorded as 1.27 fold over background.
The matching figures for `CSCC[C@H](NC(=O)[C@H](Cc1ccccc1)NC(=O)[C@H](CCC(N)=O)NC(=O)[C@@H](NC(=O)[C@@H]1CCCN1C(=O)[C@H](CCSC)NC(=O)[C@H](Cc1c[nH]c2ccccc12)NC(=O)[C@@H](NC(=O)[C@H](CC(=O)O)NC(=O)[C@H](CCSC)NC(=O)[C@H](CCC(N)=O)NC(=O)[C@H](CCCNC(=N)N)NC(=O)[C@H](CCC(N)=O)NC(=O)[C@@H](NC(=O)[C@H](CO)NC(=O)[C@H](Cc1c[nH]cn1)NC(=O)[C@H](CCC(N)=O)NC(=O)[C@H](C)NC(C)=O)C(C)C)C(C)C)C(C)C)C(=O)N[C@@H](C)C(=O)NCC(=O)N[C@@H](Cc1ccccc1)C(=O)N[C@H](C(=O)NCC(=O)NCC(=O)NCC(=O)N[C@@H](CCCCNC(=O)c1ccc2c(c1)C(=O)OC21c2ccc(O)cc2Oc2cc(O)ccc21)C(N)=O)[C@@H](C)O` [SEQ ID NO: 467]: 3.9 fold over background and 1.30 fold over background.
On to “AGYWSCAGPPMFMCTWQGT (Synthetically generated cMet-binding peptide sequence) [SEQ ID NO: 079]”, for which the “Protein ELISA” value in assay [1] is 10.7 fold over background. Further, the “WC ELISA” value in assay [2] was 1.27 fold over background.
Regarding “AQHVVTLTLIQMPFAFNFEPRM (Synthetically generated cMet-binding peptide sequence) [SEQ ID NO: 484]”, in assay [1], the “Protein ELISA” value was determined as 3.1 fold over background. Further, the “WC ELISA” value in assay [2] is 1.30 fold over background.
For `CC[C@H](C)[C@H](NC(=O)[C@H](CC(=O)O)NC(=O)[C@H](Cc1ccccc1)NC(=O)[C@H](Cc1ccccc1)NC(=O)[C@H](CCC(=O)O)NC(=O)[C@H](Cc1c[nH]c2ccccc12)NC(=O)[C@@H](NC(=O)[C@H](CCC(=O)O)NC(=O)[C@H](CCCCN)NC(=O)[C@H](CCC(N)=O)NC(=O)[C@H](C)NC(C)=O)[C@@H](C)O)C(=O)N[C@H](C(=O)N[C@@H](Cc1ccc(O)cc1)C(=O)NCC(=O)N[C@@H](CO)C(=O)NCC(=O)N[C@@H](Cc1c[nH]c2ccccc12)C(=O)N[C@@H](CCCCN)C(=O)N[C@@H](Cc1ccccc1)C(=O)N[C@@H](CC(N)=O)C(=O)N[C@@H](CO)C(=O)N1CCC[C@H]1C(=O)NCC(=O)NCC(=O)NCC(=O)N[C@@H](CCCCNC(=O)c1ccc2c(c1)C(=O)OC21c2ccc(O)cc2Oc2cc(O)ccc21)C(N)=O)C(C)C` [SEQ ID NO: 466] the same measures were 4.0 fold over background and 1.23 fold over background.
Turning to `CC[C@H](C)[C@@H]1NC(=O)[C@H](Cc2ccc(O)cc2)NC(=O)[C@H]([C@@H](C)O)NC(=O)[C@H](CCC(=O)O)NC(=O)[C@H](CC(C)C)NC(=O)[C@H](CC(=O)O)NC(=O)[C@H](Cc2ccccc2)NC(=O)[C@H](CC(=O)O)NC(=O)[C@@H](NC(=O)[C@H](Cc2ccc(O)cc2)NC(=O)[C@H](CC(=O)O)NC(=O)[C@H](Cc2ccc(O)cc2)NC(=O)[C@H](CC(=O)O)NC(=O)CNC(C)=O)CSSC[C@@H](C(=O)N[C@@H](Cc2c[nH]cn2)C(=O)N[C@@H](CO)C(=O)N[C@@H](Cc2ccc(O)cc2)C(=O)N[C@@H](CC(=O)O)C(=O)N2CCC[C@H]2C(=O)NCC(=O)NCC(=O)NCC(=O)N[C@@H](CCCCNC(=O)c2ccc3c(c2)C(=O)OC32c3ccc(O)cc3Oc3cc(O)ccc32)C(N)=O)NC(=O)[C@H](CCC(=O)O)NC(=O)[C@@H]2CCCN2C1=O` [SEQ ID NO: 390], the “Protein ELISA” value in assay [1] amounted to 16.1 fold over background. The “WC ELISA” value in assay [2] is 1.27 fold over background.
With `CSCC[C@H](NC(=O)[C@@H]1CCCN1C(=O)[C@H](CO)NC(=O)CNC(=O)[C@@H](NC(=O)[C@H](CCC(N)=O)NC(=O)[C@H](C)NC(C)=O)C(C)C)C(=O)N[C@@H](CC(C)C)C(=O)N1CCC[C@H]1C(=O)N[C@@H](CO)C(=O)N[C@@H](Cc1c[nH]c2ccccc12)C(=O)N[C@@H](Cc1ccccc1)C(=O)N[C@@H](CO)C(=O)N[C@@H](Cc1ccccc1)C(=O)N[C@@H](CCC(=O)O)C(=O)N[C@@H](C)C(=O)N[C@@H](CC(N)=O)C(=O)N[C@@H](Cc1c[nH]c2ccccc12)C(=O)N[C@@H](CO)C(=O)N[C@@H](CO)C(=O)NCC(=O)NCC(=O)NCC(=O)N[C@@H](CCCCNC(=O)c1ccc2c(c1)C(=O)OC21c2ccc(O)cc2Oc2cc(O)ccc21)C(N)=O` [SEQ ID NO: 456], the “Protein ELISA” value in assay [1] came to 7.0 fold over background. Also, in assay [2], the “WC ELISA” value was determined as 1.30 fold over background.
For the compound “AGSWECTGPPSFHCQWYGT (Synthetically generated cMet-binding peptide sequence) [SEQ ID NO: 070]”, the “Protein ELISA” value in assay [1] was determined as 3.9 fold over background. Moreover, the “WC ELISA” value in assay [2] is given as 1.37 fold over background.
The matching figures for `CC[C@H](C)[C@H](NC(=O)[C@H](Cc1ccccc1)NC(=O)[C@H](CCC(N)=O)NC(=O)[C@H](Cc1ccccc1)NC(=O)[C@@H](NC(=O)[C@H](Cc1c[nH]c2ccccc12)NC(=O)[C@@H](NC(=O)[C@H](CC(=O)O)NC(=O)[C@H](Cc1ccc(O)cc1)NC(=O)[C@H](CCC(N)=O)NC(=O)[C@H](C)NC(C)=O)[C@@H](C)O)C(C)C)C(=O)N[C@@H](Cc1c[nH]cn1)C(=O)N[C@@H](CCC(=O)O)C(=O)N[C@H](C(=O)N1CCC[C@H]1C(=O)NCC(=O)N[C@@H](CCC(=O)O)C(=O)N[C@@H](CC(C)C)C(=O)N[C@H](C(=O)N[C@@H](C)C(=O)N[C@@H](CCSC)C(=O)N[C@@H](CCC(N)=O)C(=O)NCC(=O)NCC(=O)NCC(=O)N[C@@H](CCCCNC(=O)c1ccc2c(c1)C(=O)OC21c2ccc(O)cc2Oc2cc(O)ccc21)C(N)=O)C(C)C)C(C)C` [SEQ ID NO: 454]: 8.9 fold over background and 1.23 fold over background.
The matching figures for “AGETFCSGWPTFECMQWGT (Synthetically generated cMet-binding peptide sequence) [SEQ ID NO: 095]”: 16.2 fold over background and 1.23 fold over background.
Regarding “AGVWICRVWDDECFFQGT (Synthetically generated cMet-binding peptide sequence) [SEQ ID NO: 020]”, in assay [1], the “Protein ELISA” value came out at 3.7 fold over background. Besides, in assay [2], the “WC ELISA” value is on record as 1.37 fold over background.
In the case of “AQEWQTWTWNMIEVISENKTP (Synthetically generated cMet-binding peptide sequence) [SEQ ID NO: 468]”, the “Protein ELISA” value in assay [1] worked out at 3.8 fold over background. In addition, the “WC ELISA” value in assay [2] was 1.40 fold over background.
The matching figures for `CC[C@H](C)[C@@H]1NC(=O)[C@@H](NC(=O)[C@H](Cc2c[nH]cn2)NC(=O)[C@@H](NC(=O)[C@H](Cc2c[nH]c3ccccc23)NC(=O)CNC(=O)[C@H](C)NC(C)=O)[C@@H](C)O)CSSC[C@@H](C(=O)N[C@H](C(=O)N2CCC[C@H]2C(=O)N[C@@H](CCSC)C(=O)NCC(=O)N[C@H](C(=O)NCC(=O)NCC(=O)NCC(=O)N[C@@H](CCCCNC(=O)c2ccc3c(c2)C(=O)OC32c3ccc(O)cc3Oc3cc(O)ccc32)C(N)=O)[C@@H](C)O)[C@@H](C)CC)NC(=O)[C@H](CCC(=O)O)NC(=O)[C@H](Cc2ccccc2)NC(=O)[C@H]([C@@H](C)O)NC(=O)[C@@H]2CCCN2C(=O)[C@@H]2CCCN2C(=O)CNC1=O` [SEQ ID NO: 052]: 8.0 fold over background and 1.30 fold over background.
The matching figures for “GSEFECTGWPEFRCYEYAP (Synthetically generated cMet-binding peptide sequence) [SEQ ID NO: 100]”: 8.4 fold over background and 1.20 fold over background.
Consider “AGQMWCAEKNSKCYQWGT (Synthetically generated cMet-binding peptide sequence) [SEQ ID NO: 030]”, for which, in assay [1], the “Protein ELISA” value is 3.2 fold over background. For the same compound, the “WC ELISA” value in assay [2] is 1.27 fold over background.
On to `CSCC[C@H](NC(=O)[C@H](CCCNC(=N)N)NC(=O)[C@H](Cc1c[nH]c2ccccc12)NC(=O)[C@H](CO)NC(=O)[C@H](CO)NC(=O)[C@H](CC(C)C)NC(=O)[C@H](Cc1ccccc1)NC(=O)[C@H](CC(=O)O)NC(=O)[C@H](CC(C)C)NC(=O)[C@H](Cc1ccc(O)cc1)NC(=O)[C@H](Cc1c[nH]c2ccccc12)NC(=O)[C@H](Cc1ccc(O)cc1)NC(=O)[C@@H]1CCCN1C(=O)[C@H](CCC(=O)O)NC(=O)[C@H](CCC(=O)O)NC(=O)[C@@H](NC(=O)[C@H](CCC(=O)O)NC(=O)[C@H](CCCNC(=N)N)NC(=O)[C@H](CCC(N)=O)NC(=O)[C@H](C)NC(C)=O)C(C)C)C(=O)N[C@@H](Cc1c[nH]cn1)C(=O)N[C@@H](CCC(=O)O)C(=O)NCC(=O)NCC(=O)NCC(=O)N[C@@H](CCCCNC(=O)c1ccc2c(c1)C(=O)OC21c2ccc(O)cc2Oc2cc(O)ccc21)C(N)=O` [SEQ ID NO: 451], for which the “Protein ELISA” value in assay [1] amounted to 8.2 fold over background. In addition, the “WC ELISA” value in assay [2] is 1.33 fold over background.
